T1: putative esterase / UPF0227 protein ExploCarb_3811S_S4_483_length_13114_cov_941_5 (Sulfurihydrogenibium sp., UniProt A0A2J6WYH8)
T1 construct: gene C0178_06060
T1 sequence (A0A2J6WYH8 1-191): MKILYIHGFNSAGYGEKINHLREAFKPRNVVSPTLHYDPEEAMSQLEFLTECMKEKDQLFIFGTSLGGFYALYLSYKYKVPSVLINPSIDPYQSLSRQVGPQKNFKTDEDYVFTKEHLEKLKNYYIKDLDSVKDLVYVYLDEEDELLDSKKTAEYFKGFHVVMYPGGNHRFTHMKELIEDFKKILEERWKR

B1: putative esterase / UPF0227 protein ExploCarb_3811S_S4_483_length_13114_cov_941_5 (Sulfurihydrogenibium sp.) (protein)
chain: T1 sequence (A0A2J6WYH8 1-191)
notes: 191 amino acids; codon-optimized gene in pET-28b(+), expressed in E. coli Rosetta(DE3), purified; motif G63-T64-S65-L66-G67

Assays:
[1] = molecular target: T1, putative esterase / UPF0227 protein ExploCarb_3811S_S4_483_length_13114_cov_941_5
[2] = substrate: CC(=O)Oc1ccc([N+](=O)[O-])cc1; test: pNP-ester hydrolysis kinetics; assay type: biochemical, Sulfurihydrogenibium sp.; conditions: pH 8.0, 70 °C, substrate up to 0.7 mM
[3] = substrate: CCCC(=O)Oc1ccc([N+](=O)[O-])cc1; test: pNP-ester hydrolysis kinetics; assay type: biochemical, Sulfurihydrogenibium sp.; conditions: pH 8.0, 70 °C, substrate up to 0.7 mM
[4] = substrate: CCCCCCCC(=O)Oc1ccc([N+](=O)[O-])cc1; test: pNP-ester hydrolysis kinetics; assay type: biochemical, Sulfurihydrogenibium sp.; conditions: pH 8.0, 70 °C, substrate up to 0.7 mM

Molecule | competition with FP-alkyne labelling of purified esterase (pre-incubation) [1] | Km [2] [µM] | Km [3] [µM] | Km [4] [µM]
CCOP(=O)(OCC)Oc1ccc([N+](=O)[O-])cc1 [paraoxon] | could be strongly diminished by pre-incubation with the generic serine esterase inhibitor paraoxon | – | – | –
B1 | – | 120 | 180 | 160

— publication PMC11145796, “Environmental activity-based protein profiling for function-driven enzyme discovery from natural communities” (Environmental Microbiome, 2024)
